In patent publication US20240325555A1 (LANOVA MEDICINES, published 2024):
Residue numbers refer to the chain shown, from its start.

B1: 135C6E7 (antibody, V domains shown)
VH: EVQLVESGGGLVQPKGSLKLSCAASGFTFNTYAMNWVRQAPGKGLEWVARIRSKYNSYATYYADSVKDRFTISRDDSQSILYLQMNNLKTEDTAMYYCVRHEDYDGGFAYWGQGTLVTVSA
VL: DIVMSQSPSSLAVSVGEKVTMSCKSSQSLFKSRTRKNYLAWYQQKPGQSPKLLIYWASTRESGVPDRFTGSGSGTDFTLTISSVQAEDLAVYYCKESYNLMYTFGGGTKLEIK
notes: Tested as chimeric antibody
B2: 109C9D4 (antibody, V domains shown)
VH: EVKLVESGGGLVQPGGSRKLSCAASGFTFSDYGMAWVRQAPGKGPEWVTFISNLAYSIYYADTVTGRFTISRENAKNTLYLEMSSLRSEDTAMYYCARVEENGNYFDYWGQGTTLTVSS
VL: DIQMTQTTSSLSASLGDRVTIRCRASQDIGIYLHWYQQKPDGTVKLLIYYTSRLHSGVPSRFSGSRSGTDYSLTIGNLEQEDIATYFCLQGNTIPPTFGGGTKLEIK
notes: Tested as chimeric antibody
B3: 127A2B9 (antibody, V domains shown)
VH: EVQLQESGPSLVKPSQTLSLTCSVTGDSITSGYWNWIRKLPGNKLEYMGYISYSGSTYYNPSLKSRISITRDTSKNQYYLQLNSVTTEDTATYYCARIYYDYDGYFDVWGAGTTVTVSS
VL: DIVMTQAAPSVPVTPGESVSISCRSSKSLLHSNGNTFLYWFLQRPGQSPQLLIYRMSNLASGVPDRFSGSGSGTAFTLRISRVEAEDVGVYYCMQHLEYPYTFGGGTKLEIK
notes: Tested as chimeric antibody
B4: 59C12C8 (antibody, V domains shown)
VH: EVQLQQSGAELVRSGASVKLSCTASDFNIEDYYIHWVKQRPEQGLEWIGWIDPENGDTEYAPKFQGKATMTADTSSNTAYLQLSSLTSEDTAVYYCPHGGGFRVFDYWGQGTTLTVSS
VL: DVLMTQTPLSLPVSLGDQASISCRSSQRIVHSNGNTYLEWYLQKPGQSPKLLIYKVSNRFSGVPDRFSGSGSGTDFTLKISRVEAEDLGVYYCFQGSHVPWTFGGGTKLEIK
notes: Tested as chimeric antibody
B5: 136F3D10C10 (antibody, V domains shown)
VH: QVQLQQSGPELVKPGASVRIFCKASGYTFTSFHIHWVKQRPGQGLEWIGWIYPGNDNTDHNEKFKGKATLSADKSSSTVYMQLSSLTSEDSAVYFCGRSNYYGPLFAYWGQGTLVTVSA
VL: B4 VL with V2I, R28N, H31R, L51V, K55R, H98Y, W101Y
notes: Tested as chimeric antibody
B6: 124H4D11 (antibody, V domains shown)
VH: EVPLQQSGAELVRSGASVKLSCTASGFNIKDYYMHWVKQRPEQGLEWIGWIDPENGDTEYDPKFQGKATMTADTSSNTADLQLSSLTSEDTAVYYCNARYYAFDYWGQGTTLTVSS
VL: B4 VL with R28S, D75E, H98Q, W101P, K108R
notes: Tested as chimeric antibody
B7: 112H11C12 (antibody, V domains shown)
VH: QVQLQQPGAELVRPGASVKLSCKASGYTFTSYWMNWVKQRPGQGLKWIGMIDPSNSKTHYNQMFKDKATLTVDKSSNTAYMQLSSLTSEDSAVYYCARTSTTMATFAYWGQGTLVSVSA
VL: B4 VL with R28S, G96A, V99F, W101L, G105A, K108E, E110D, I111L, K112N
notes: Tested as chimeric antibody; also called 112H1C12
B8: 108H1D4 (antibody, V domains shown)
VH: EVKLVESGGDLVQPGGSRKLSCAASGFTFSDYGMAWFRQAPGKGPEWVAFISNLAYNIYYADTVTGRFTISRENARNTLYLEMSSLRSEDTAMYYCAREGGITTVPATDYFDYWGQGTTLTVSS
VL: DIQMTQTTSSLSASLGDRVTFSCRASQDIRNYLNWYQQKPDGTVKLLIYYTSRLHSGVPSRFSGSGSGTDYSLTINNLEQEDLATYFCQQVNALPLTFGAGTKLELK
notes: Tested as chimeric antibody
B9: 47G1B10 (antibody, V domains shown)
VH: QVQLKQSGPGLVQPSQSLSITCTVSGFSLTTYGVHWVRQSPGKGLEWLGVIWTGGTTDYNAAFISRLSISKDNSKSQVFFKMNSLQANDTAIYYCARGPSSYWGQGTLVTVSA
VL: DIVMTQSQKFMSTSVGDRVSVTCKASQNVDTNVVWYQQKPGQSPKALIHSASYRYSGVPDRFTGSGSGTDFTLTISNVQSEDLAEYFCQQYNNYPWTFGGGTKLEIK
notes: Tested as chimeric antibody
B10: 39D10B2 (antibody, V domains shown)
VH: B9 VH with I92M
VL: B9 VL
notes: Tested as chimeric antibody

The binders below were run against T1, human LIV-1 (human, UniProt Q13433 29-755) (assay: FACS, HEK293/H_LIV-1 cells).
T1 construct: whole, on cells; also called H-LIV1
T1 sequence (looked up): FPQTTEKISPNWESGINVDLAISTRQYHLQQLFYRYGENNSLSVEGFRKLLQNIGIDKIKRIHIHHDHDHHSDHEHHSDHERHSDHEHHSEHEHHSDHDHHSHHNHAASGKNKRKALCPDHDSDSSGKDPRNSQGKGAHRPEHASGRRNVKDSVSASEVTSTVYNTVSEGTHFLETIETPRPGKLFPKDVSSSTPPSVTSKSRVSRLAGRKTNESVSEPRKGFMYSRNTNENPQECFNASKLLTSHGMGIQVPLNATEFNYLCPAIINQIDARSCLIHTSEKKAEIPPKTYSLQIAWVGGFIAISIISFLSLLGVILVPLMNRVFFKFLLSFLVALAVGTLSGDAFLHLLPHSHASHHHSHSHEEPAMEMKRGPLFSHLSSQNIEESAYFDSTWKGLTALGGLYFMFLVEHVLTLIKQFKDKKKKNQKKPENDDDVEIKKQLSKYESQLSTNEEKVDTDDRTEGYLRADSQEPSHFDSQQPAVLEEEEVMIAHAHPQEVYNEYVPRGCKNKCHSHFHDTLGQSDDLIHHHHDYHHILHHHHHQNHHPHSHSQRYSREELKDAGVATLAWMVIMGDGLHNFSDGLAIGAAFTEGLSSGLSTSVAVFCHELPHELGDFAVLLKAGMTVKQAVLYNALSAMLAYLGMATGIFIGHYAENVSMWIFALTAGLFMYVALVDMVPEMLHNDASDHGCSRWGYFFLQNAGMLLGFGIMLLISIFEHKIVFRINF
Procedure: (§1) In this example, cell based binding of chimeric Abs on human and cyno LIV-1 over-expressing HEK 293 cells were assessed using flow cytometry.
(§2) Briefly, cells were incubated with chimeric Abs (from 100 nM, 5 folds dilution, 8 points). After incubation at 4° C. for 60 minutes, the cells were washed with 2% FBS/PBS buffer twice, then stained with fluorescent conjugated secondary antibody at 4° C. for 30 minutes. After that the cells were washed twice and resuspended in 80 μL of 2% FBS/PBS buffer. Fluorescent signal of binding was detected using Agilent. The EC50 was calculated using the GraphPad Software (LaJolla, CA).

Row | Binder | EC50 [nM] | Top (MFI)
1 | B1 | 3.6 | 16500
2 | B2 | 0.43 | 7340
3 | B3 | 4.03 | 34600
4 | B4 | 0.1 | 15100
5 | B5 | 0.85 | 7910
6 | B6 | 0.23 | 7980
7 | B7 | 20.7 | 8800
8 | B8 | 0.9 | 8800
9 | B9 | 0.37 | 60900
10 | B10 | 0.24 | 61800

The binders below were run against T1, human LIV-1 (assay: cell-based or functional assay).

Row | Binder | Internalization EC50 [nM] | Internalization Top (RFU)
11 | B1 | 12.4 | 675000
12 | B2 | 4.2 | 554000
13 | B3 | 51.8 | 558000
14 | B4 | 3.9 | 408000
15 | B5 | 32.2 | 835000
16 | B6 | 4.3 | 474000
17 | B7 | 13.2 | 643000
18 | B8 | 4.8 | 511000
19 | B9 | 10.1 | 178000
20 | B10 | 16.9 | 171000

Molecular target: T1, human LIV-1
Assay: cell-based or functional assay
Remark: another data set of the same source

Row | Binder | Cell viability(%) | Cytotoxicity IC50 [nM]
21 | B1 | 17.6 | 4.6
22 | B2 | 18.5 | 0.69
23 | B3 | 17.8 | 2.25
24 | B4 | 20.3 | 0.81
25 | B5 | 16.3 | 1.21
26 | B6 | 15.4 | 0.57
27 | B7 | 18 | 2.08
28 | B8 | 17.3 | 0.7
29 | B9 | 17.7 | 1.53
30 | B10 | 16.2 | 1.54

What follows are binders tested against cynomolgus LIV-1 (cynomolgus, UniProt A0A2K5WH46 30-741) (assay: FACS, HEK293/Cyno_LIV-1 cells).
Procedure: as §1, §2

Row | Binder | EC50 [nM] | Top (MFI)
31 | B1 | 2.69 | 6290
32 | B2 | 1.33 | 2340
33 | B3 | 3.92 | 21700
34 | B4 | 0.11 | 8060
35 | B5 | 0.76 | 3450
36 | B6 | 0.2 | 3370
37 | B7 | 12 | 2930
38 | B8 | 130 | 762
39 | B9 | 0.3 | 36700
40 | B10 | 0.21 | 37300

Molecular target: T1, human LIV-1
Assay: cell-based or functional assay
Remark: another data set of the same source

Row | Binder | ADCC reporter EC50 [nM] | ADCC reporter Top (RFU)
41 | B1 | 6.4 | 53100
42 | B2 | 4.1 | 101000
43 | B4 | 1.1 | 36300
44 | B5 | 4.8 | 83900
45 | B6 | 2.1 | 81900
46 | B7 | 20.5 | 74700
47 | B8 | 8.3 | 139000
48 | B9 | 0.3 | 191000
49 | B10 | 0.2 | 151000
